Measurements: paper PMC12099300

Columns and labels:
[1] = target: atezolizumab; assay: ELISA; antibodies coated on MaxiSorp plates (5 µg/mL, 50 µL, overnight 4°C), blocked with 1% BSA; PD-L1 or VISTA 50-0.0003 µg/mL in PBS, 1 h RT; detected by anti-His-tag antibody and Strep-HRP; EC50 by nonlinear regression
[2] = target: onvatilimab; assay: as above
Sequence of onvatilimab (heavy, as listed by the source, chain 1 of 2): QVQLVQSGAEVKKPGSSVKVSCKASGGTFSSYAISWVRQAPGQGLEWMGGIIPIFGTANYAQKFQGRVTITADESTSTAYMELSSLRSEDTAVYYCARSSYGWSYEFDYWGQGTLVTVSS
Sequence of onvatilimab (light, as listed by the source, chain 2 of 2): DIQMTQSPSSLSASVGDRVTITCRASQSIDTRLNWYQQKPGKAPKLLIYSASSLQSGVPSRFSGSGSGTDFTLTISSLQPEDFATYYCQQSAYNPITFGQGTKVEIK

| Substance | EC50 [1] [nM] | EC50 [2] [nM] |
| --- | --- | --- |
| PD-L1 (programmed cell death ligand 1) (from UniProt Q9NZQ7 19-290) (natural protein) | 0.07 |  |
| VISTA (V-type immunoglobulin suppressor of T-cell activation) (from UniProt Q9H7M9 33-311) (natural protein) |  | 0.0001 |
